Measured values reported in article PMC3722153, “Refolding of a Thermostable Glyceraldehyde Dehydrogenase for Application in Synthetic Cascade Biomanufacturing” (PLoS ONE, 2013).

Tests used:
purified protein [1] = substrate: NC(=O)c1ccc[n+]([C@@H]2O[C@H](COP(=O)(O)OP(=O)(O)OC[C@H]3O[C@@H](n4cnc5c(N)ncnc54)[C@H](O)[C@@H]3O)[C@@H](O)[C@H]2O)c1; assay: purified protein; type: biochemical, Thermoplasma acidophilum; conditions: 5 mM D-glyceraldehyde, 0-75 mM NAD+, 100 mM HEPES pH 6.2, 50°C, refolded enzyme 0.02 mg/mL, apparent, varied: cofactor
Excerpt: (§1) (glyceraldehyde dehydrogenase, aldehyde dehydrogenase from Thermoplasma acidophilum)

purified protein [2] = substrate: NC(=O)c1ccc[n+]([C@@H]2O[C@H](COP(=O)(O)OP(=O)(O)OC[C@H]3O[C@@H](n4cnc5c(N)ncnc54)[C@H](OP(=O)(O)O)[C@@H]3O)[C@@H](O)[C@H]2O)c1; assay: purified protein; type: biochemical, Thermoplasma acidophilum; conditions: 5 mM D-glyceraldehyde, 0-0.24 mM NADP+, 100 mM HEPES pH 6.2, 50°C, refolded enzyme 0.02 mg/mL, apparent, varied: cofactor
Excerpt: as §1

[3] = molecular target: the molecule itself; assay: SEC; Superdex 200 gel filtration, calibrated with molecular mass standards; 50 mg lyophilized TaAlDH dissolved in 10 mL 20 mM TRIS pH 8; soluble and refolded preparations

B1: glyceraldehyde dehydrogenase (aldehyde dehydrogenase) from Thermoplasma acidophilum (enzyme, UniProt Q9HK01 1-493, looked up)
chain: MDTKLYIDGQWVNSSSGKTVDKYSPVTGQVIGRFEAATRDDVDRAIDAAEDAFWAWNDLGSVERSKIIYRAKELIEKNRAELENIIMEENGKPVKEAKEEVDGVIDQIQYYAEWARKLNGEVVEGTSSHRKIFQYKVPYGIVVALTPWNFPAGMVARKLAPALLTGNTVVLKPSSDTPGSAEWIVRKFVEAGVPKGVLNFITGRGSEIGDYIVEHKKVNLITMTGSTATGQRIMQKASANMAKLILELGGKAPFMVWKDADMDNALKTLLWAKYWNAGQSCIAAERLYVHEDIYDTFMSRFVELSRKLALGDPKNADMGPLINKGALQATSEIVEEAKESGAKILFGGSQPSLSGPYRNGYFFLPTIIGNADQKSKIFQEEIFAPVIGARKISSVEEMYDLANDSKYGLASYLFTKDPNIIFEASERIRFGELYVNMPGPEASQGYHTGFRMTGQAGEGSKYGISEYLKLKNIYVDYSGKPLHINTVRDDLFQ
notes: glyceraldehyde dehydrogenase (TaAlDH) of Thermoplasma acidophilum; calculated mass 56 kDa (56.4 kDa); they are written as one molecule; also called TaAlDH; AlDH; source: E. coli BL21 (DE3)
Protein B1 has a Km (purified protein [1]) of 22.13 ± 1.43 mM, a Vmax (purified protein [1]) of 1.86 µmol/min/mg and a Km (purified protein [2]) of 0.022 ± 0.001 mM. The Vmax (purified protein [2]) was 0.849 µmol/min/mg and the “stoichiometry N” value [3] was 2.
